Measured values reported in patent US20230085439A1.

Assays:
[1] = biological target: hMPV B2 F (human metapneumovirus)
[2] = biological target: hMPV B2 F (human metapneumovirus); experiment: BLI, Fab in solution, His-tagged hMPV B2 F on anti-penta-HIS sensors
[3] = biological target: hMPV 130-BV (human metapneumovirus); experiment: BLI, Fab in solution, hMPV 130-BV on anti-penta-HIS sensors
[4] = biological target: hMPV 130-BV (human metapneumovirus); experiment: biolayer interferometry, hMPV 130-BV on anti-penta-HIS biosensors; unit inferred

B1: MPV364 Fab (Fab, V domains shown)
VH: QVQLVQSGAEVKKPGASVKVSCKASGYTFTHDSIHWVRQAPGQRLEWMGWINVGNGDTKSSQKFQDRLTITRDTSANTAYMEVRSLKYEDTAMYFCARVDQYCIGGVCYGGKNWFDPWGQGTLVTVSS
VL: SYELNQPPSVSVAPGQTAMITCGGYYVGVKSLHWYQQKAGQAPVLVVHDDSDRPSGIPERFSGSKSGDTATLIISRVEAGDEADYYCQVWDRDSDHPYVFGTGTTVTVL
Question: How did the Kd [1] turn out when B1 was run?
Answer: Its Kd is 70 nM.

Question: What about the koff [1] of the same binder?
Answer: The koff was 0.0038 s⁻¹.

Question: What about the kon [1] of the same binder?
Answer: The kon was 61000 M⁻¹ s⁻¹.

Question: What about the fold KD against MPV196 and MPV314 [2] of the same binder?
Answer: Its fold KD against MPV196 and MPV314 is 10 fold.

B2: MPV196 Fab (Fab, V domains shown)
VH: QVQLQQWGAGLLKPSETLSLTCAVYGGSFSGYSWTWIRQPPGKGLEWIGEINHSGSTNYNPSLKSRVTISIDTSRNQFSLKLISVTAADTAVYYCARGVRGGYNLWHFDVWGQGTLVTVSS
VL: SYELSQSPSVSVSPGQTARITCSGDKLGNKYASWYQQKPGQSPVLVIYQDDKRPSGIPERFSGSNSGNTATLTIGGTQAMDEADYSCQAWDGRTAVVFGGGTKLTVL
Question: For B2, which Kd [1] is on record?
Answer: Its Kd is 7.3 nM.

Question: And the koff [1]?
Answer: The koff was 0.003 s⁻¹.

Question: What about the kon [1] of the same binder?
Answer: Its kon is 410000 M⁻¹ s⁻¹.

B3: MPV314 Fab (Fab, V domains shown)
VH: QVQLVQSGGGVVQPGRSLRLSCAASGFSFSDYGMDWVRQAPGKGLEWVAVISYDGSNQYYADSVKGRFTVSRDNSKNTVYLQMNSLRAEDTAVYFCAKDESRRYYYSSGIHSHWGQGTLVTVSS
VL: DIVMTQSPATLSVSPGERATLSCRASQSVSRNLAWYQQKPGQAPRLLIFGASTRATGIPARFSGSASGTEFTLTISSLQSEDFAVYYCHQYNYWPPGTFGQGTRLEIK
Question: B3 was tested. Which Kd [1] did it give?
Answer: The Kd was 4.4 nM.

Question: What about the koff [1] of the same binder?
Answer: The koff was 0.0027 s⁻¹.

Question: What about the kon [1] of the same binder?
Answer: The kon was 630000 M⁻¹ s⁻¹.

B4: MPV458 Fab (Fab, V domains shown)
VH: QGKLVESGGGVIQPGRSLRLSCAASGFDFSRYGLHWVRQAPGKGLEWVAVIVYAGSNKYYADSVKGRFTISKDNSKNTMHLQMSDLRTEDTAVYYCARDQAFDLWGQGTMVTVSS
VL: DIQMTQSPASLSASVGDRVTITCQASQGISRSVNWYQQKPGKAPKLLIFDASHLERGVPSRFSGSGYGTDFTFTISSLQPEDIATYYCQQYDNLRISFGQGTRLEIK
Question: With B4 as the binder, how does the KD difference in logs against 101F Fab [3] read?
Answer: Its KD difference in logs against 101F Fab is 3 logs.

Question: What about the Kd [4] of the same binder?
Answer: Its Kd is 0.075 nM.
